The source of these data is publication PMC3089955.

Test [1] has as its target DENV-2 NS1 N130Q with carboxy-terminal hexa-histidine tag (Dengue virus serotype 2 (DENV-2), strain 16681). As to the kind of experiment: non-reducing SDS-PAGE with Western blot.
The target in test [2] is T1, DENV-2 NS1 wild type without hexa-histidine tag (Dengue virus serotype 2 (DENV-2), strain 16681), P29990.
T1 chain: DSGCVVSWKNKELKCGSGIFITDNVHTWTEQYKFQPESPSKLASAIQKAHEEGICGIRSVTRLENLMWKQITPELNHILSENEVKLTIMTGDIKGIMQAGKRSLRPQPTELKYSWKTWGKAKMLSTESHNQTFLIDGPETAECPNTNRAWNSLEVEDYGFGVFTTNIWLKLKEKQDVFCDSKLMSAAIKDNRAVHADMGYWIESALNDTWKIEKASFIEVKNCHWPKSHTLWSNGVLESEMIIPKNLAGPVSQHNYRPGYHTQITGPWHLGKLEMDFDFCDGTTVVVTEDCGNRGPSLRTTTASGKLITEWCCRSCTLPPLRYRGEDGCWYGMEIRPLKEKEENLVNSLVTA
The test can be described thus: SEC. Conditions: remark: other sources report otherwise.

As for “DENV-2 NS1 N130Q with carboxy-terminal hexa-histidine tag (natural protein)”, the stoichiometry N (in general, the number of molecules, sites or subunits per partner or assembly) in test [1] is 2.

B1: DENV-2 NS1 wild type without hexa-histidine tag, P29990 776-1127 (natural protein)
chain: T1 chain
B1 yielded a stoichiometry N in test [2] of 6.
